The values that follow come from article PMC4466810 (2015).

The experiment concerns the target T1, VEGF-A (VEGF165) (Homo sapiens, UniProt P15692).
T1 chain: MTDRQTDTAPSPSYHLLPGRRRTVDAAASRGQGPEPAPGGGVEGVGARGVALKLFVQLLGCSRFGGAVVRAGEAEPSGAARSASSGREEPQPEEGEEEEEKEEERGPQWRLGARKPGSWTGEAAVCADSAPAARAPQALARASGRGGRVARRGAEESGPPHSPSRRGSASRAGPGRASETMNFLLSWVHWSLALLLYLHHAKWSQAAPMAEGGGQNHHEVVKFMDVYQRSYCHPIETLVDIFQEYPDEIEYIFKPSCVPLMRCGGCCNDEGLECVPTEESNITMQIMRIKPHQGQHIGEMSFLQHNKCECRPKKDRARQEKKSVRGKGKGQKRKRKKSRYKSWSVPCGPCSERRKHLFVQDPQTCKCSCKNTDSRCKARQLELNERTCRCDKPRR
As to the kind of experiment: equilibrium binding assay (ELISA of unbound blocker). For orientation: ELISA stands for enzyme-linked immunosorbent assay.

B1: HB-002.1 (VEGFR1 D2-Fc fusion) 129-228 (protein)
chain: SDTGRPFVEMYSEIPEIIHMTEGRELVIPCRVTSPNITVTLKKFPLDTLIPDGKRIIWDSRKGFIISNATYKEIGLLTCEATVNGHLYKTNYLTHRQTNT
modifications: fused to human IgG1 Fc
The term Kd denotes the equilibrium constant for the complex coming apart. A high value points to weaker binding. For B1, the Kd came to 0.18 nM. This lies in the sub-nanomolar range.
